Assay results taken from patent publication EP2481750A1.

Experiments:
[1] = biological target: murine B7-DC (murine) (UniProt Q9WUL5); experiment: flow cytometry competition on murine bone marrow derived DC; DC preincubated with PD-1.Ig, then stained with sHIgM12
[2] = biological target: murine B7-DC (murine) (UniProt Q9WUL5); experiment: flow cytometry competition on murine bone marrow derived DC; DC preincubated with sHIgM12, then stained with PD-1.Ig
[3] = biological target: murine B7-DC (murine) (UniProt Q9WUL5); experiment: flow cytometry on 293T cells transfected with murine B7-DC
[4] = biological target: murine B7-DC (murine) (UniProt Q9WUL5); experiment: cell-based or functional assay

murine B7-DC (murine), sequence (Q9WUL5 20-247): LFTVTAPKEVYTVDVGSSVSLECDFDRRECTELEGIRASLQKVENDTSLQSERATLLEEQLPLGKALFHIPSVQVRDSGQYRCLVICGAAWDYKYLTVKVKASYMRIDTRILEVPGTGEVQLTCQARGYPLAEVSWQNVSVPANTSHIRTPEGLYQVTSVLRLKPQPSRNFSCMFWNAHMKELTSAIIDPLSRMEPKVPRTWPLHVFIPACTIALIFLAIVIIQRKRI

sHIgM12 staining remaining (% of the level without PD-1) [1] [%] | PD-1 binding remaining (% of the level without sHIgM12) [2] [%] | percent of transfected cells stained [3] [%] | FITC-MFI (uptake of FITC-BSA by bone marrow derived DC in vitro) [4] [MFI] | FITC-MFI (uptake of FITC-OVA by splenic DC after treatment in vivo) [4] [MFI] | GFP+, CD11c+ DC recovered from draining lymph nodes, against polyclonal HIgM control [4] [fold] | IL-12 p70 release by DC (ELISA), against LPS [4] [fold] | ability of lymph node DC to induce an antigen-specific T cell response [4] [fold] | percentage of cellular metabolism (Alamar Blue) maintained 24 hours after cytokine withdrawal [4] [%] | Substance
50 | – | – | – | – | – | – | – | – | PD-1.Ig fusion protein (Fc fusion)
– | 20 | 97 | 584 | 116 | 5 | 3 | 10 | 80 | sHIgM12 (pentameric human monoclonal IgM/kappa antibody, B7-DC cross-linking antibody)
